In patent publication US20220251219A1 (published 2022):

How the values were obtained:
[1] = target: T1, mouse Sortilin expressed on HEK293T cells (mouse, UniProt Q6PHU5 74-825); experiment: flow cytometry, antibody titration on HEK293T cells transiently expressing mouse Sortilin, 4 C, apparent KD by non-linear fit
T1 construct: also called msSort; mSort
Method: (§1) Antibodies were diluted in FACS buffer (PBS+2% FBS+0.01% NaAzide). After incubation on ice for 1 h, cells were washed three times in FACS buffer and incubated with anti-human PE conjugated secondary antibody (BD Biosciences, 1:100 dilution) for 30 min on ice. Then cells were washed twice in 200 μl FACS buffer, and subsequently analyzed on a FACS Canto or iQE FACS screening instrument (Intellicyt Corp).

[2] = target: T2, human Sortilin expressed on HEK293T cells (human, UniProt Q99523 78-830); experiment: flow cytometry, antibody titration on HEK293T cells stably expressing human Sortilin, 4 C, apparent KD by non-linear fit
T2 construct: also called hSort; HEK293T + hSort
Method: as §1

| Binder | Kd [1] | Kd [2] |
| --- | --- | --- |
| anti-Sortilin antibody S-15-6-12 (antibody, V domains shown) VH: QVQLVQSGAEVKKPGASVKVSCKASGYTFTSRYMSWVRQAPGQGLEWMGIINPVGGSTSYAQKFQGRVTMTRDTSTSTVYMELSSLRSEDTAVYYCARDPSGIALAGPGSRYYRGMDVWGQGTTVTVSS VL: EIVMTQSPATLSVSPGERATLSCRASQSVSSNLAWYQQKPGQAPRLLIYGASTRATGIPARFSGSGSGTEFTLTISSLQSEDFAVYYCQQARLGPWTFGGGTKVEIK | 6.62 nM | 3.84 nM |
| anti-Sortilin antibody S-15-10-13 (antibody, V domains shown) VH: QVQLVQSGAEVKKPGASVKVSCKASGYTFTKYYMSWVRQAPGQGLEWMGIINPIGGSTSYARKFQGRVTMTRDTSTSTVYMELSSLRSEDTAVYYCARDPSGIAAAYPASRYNYGMDVWGQGTTVTVSS VL: EIVMTQSPATLSVSPGERATLSCRASQSVSSNLAWYQQKPGQAPRLLIYGASTRATGIPARFSGSGSGTEFTLTISSLQSEDFAVYYCQQARLGPWTFGGGTKVEIK | 4.07 nM | 2.88 nM |
